In the Human Domainome abundance scans (Beltran et al. 2025):
± gives the uncertainty stated by the source.

B1: Gamma-crystallin S, residues 96 to 176; numbered along this chain, P22914 (parent)
chain: IQIFEKGDFSGQMYETTEDCPSIMEQFHMREIHSCKVLEGVWIFYELPNYRGRQYLLDKKEYRKPIDWGAASPAVQSFRRI

Variants of: B1
Assay: abundance fitness (aPCA) (normalised: wild type 0, dead -1); higher = more abundant; growth selection in yeast, the domain comes from the species named
Details: Homo sapiens

In order of rising abundance fitness:
1. IQIEEKGDFSGQMYETTEDCPSIMEQFHMREIHSCKVLEGVWIFYELPNYRGRQYLLDKKEYRKPIDWGAASPAVQSFRRI [F4E]  -1.16 ± 0.23
2. IQIVEKGDFSGQMYETTEDCPSIMEQFHMREIHSCKVLEGVWIFYELPNYRGRQYLLDKKEYRKPIDWGAASPAVQSFRRI [F4V]  -0.906 ± 0.082
3. IQHFEKGDFSGQMYETTEDCPSIMEQFHMREIHSCKVLEGVWIFYELPNYRGRQYLLDKKEYRKPIDWGAASPAVQSFRRI [I3H]  -0.777 ± 0.26
4. IQIFEKGDFSGQMYETTEDCPSIMEQFHMREKHSCKVLEGVWIFYELPNYRGRQYLLDKKEYRKPIDWGAASPAVQSFRRI [I32K]  -0.755 ± 0.34
5. IQIFEKGDFSGQMYETTEDCPSIMEQFHMREIHSCKVLEGVWIFYELPNYRGRQSLLDKKEYRKPIDWGAASPAVQSFRRI [Y55S]  -0.437 ± 0.18
6. IQIGEKGDFSGQMYETTEDCPSIMEQFHMREIHSCKVLEGVWIFYELPNYRGRQYLLDKKEYRKPIDWGAASPAVQSFRRI [F4G]  -0.414 ± 0.042
7. IQIFEKGDFSGQMYETTEDCPSIMEQFHMREIHSCKVLEGVWIFYELPNYRGRQYLLDKKEYRWPIDWGAASPAVQSFRRI [K64W]  -0.24 ± 0.2
8. AQIFEKGDFSGQMYETTEDCPSIMEQFHMREIHSCKVLEGVWIFYELPNYRGRQYLLDKKEYRKPIDWGAASPAVQSFRRI [I1A]  -0.239 ± 0.051
9. IQIFEKGDFSGQMYETTEPCPSIMEQFHMREIHSCKVLEGVWIFYELPNYRGRQYLLDKKEYRKPIDWGAASPAVQSFRRI [D19P]  -0.237 ± 0.14
10. IQIFEKGDFSGQMYETTEDCPSIMEQFHMREIHSCKVLEGVWIFYELPNYRGRQYLLDKIEYRKPIDWGAASPAVQSFRRI [K60I]  -0.18 ± 0.33
11. IQIFEKGDFSGQMYETTEDCPSGMEQFHMREIHSCKVLEGVWIFYELPNYRGRQYLLDKKEYRKPIDWGAASPAVQSFRRI [I23G]  -0.142 ± 0.045
12. IQIFEKGDFSGQMYETTEDCPSIMEQFHMREIHSCKVLEGVWIFYELPNYRGRQYLLDKWEYRKPIDWGAASPAVQSFRRI [K60W]  -0.116 ± 0.17
13. IQIFEKGDFSGQMYETTEDCPSIMEQFHMREIHSCKVLEGCWIFYELPNYRGRQYLLDKKEYRKPIDWGAASPAVQSFRRI [V41C]  -0.112 ± 0.1
14. IQIFEKGDFSGQMYETTEDCPSIMEQFHMREIHSCKVLEGIWIFYELPNYRGRQYLLDKKEYRKPIDWGAASPAVQSFRRI [V41I]  -0.101 ± 0.14
15. IQIFEKGDFSGQMYETTEDCPSIMEQFHMREIHSCKVLEGVWIFYELSNYRGRQYLLDKKEYRKPIDWGAASPAVQSFRRI [P48S]  -0.1 ± 0.066
16. IQIFEKGDFSGQMYETTEDCPSIMEQFHMREIHSCKVLEGVWIFYELENYRGRQYLLDKKEYRKPIDWGAASPAVQSFRRI [P48E]  -0.068 ± 0.089
17. IQIFEQGDFSGQMYETTEDCPSIMEQFHMREIHSCKVLEGVWIFYELPNYRGRQYLLDKKEYRKPIDWGAASPAVQSFRRI [K6Q]  -0.056 ± 0.074
18. IQIFEKGDFWGQMYETTEDCPSIMEQFHMREIHSCKVLEGVWIFYELPNYRGRQYLLDKKEYRKPIDWGAASPAVQSFRRI [S10W]  -0.047 ± 0.051
19. IQIFERGDFSGQMYETTEDCPSIMEQFHMREIHSCKVLEGVWIFYELPNYRGRQYLLDKKEYRKPIDWGAASPAVQSFRRI [K6R]  -0.047 ± 0.048
20. IQIFEYGDFSGQMYETTEDCPSIMEQFHMREIHSCKVLEGVWIFYELPNYRGRQYLLDKKEYRKPIDWGAASPAVQSFRRI [K6Y]  -0.033 ± 0.096
21. IQCFEKGDFSGQMYETTEDCPSIMEQFHMREIHSCKVLEGVWIFYELPNYRGRQYLLDKKEYRKPIDWGAASPAVQSFRRI [I3C]  -0.029 ± 0.092
22. IQIFEKGDFSGQMYETTEDCPSIMEQFHMREIHSCKVLEGVWIFYELPNYRGRQYLLDKKEYRKPIDWGAAAPAVQSFRRI [S72A]  -0.016 ± 0.11
23. IQIFEKGDFSGQMYETTEDCPSIMEQFHMREIHSCKVSEGVWIFYELPNYRGRQYLLDKKEYRKPIDWGAASPAVQSFRRI [L38S]  -0.014 ± 0.043
24. IQIFEIGDFSGQMYETTEDCPSIMEQFHMREIHSCKVLEGVWIFYELPNYRGRQYLLDKKEYRKPIDWGAASPAVQSFRRI [K6I]  -0.009 ± 0.1
25. IQIFEKGDFSGQMYETTEDCPSIMEQFHMREIHACKVLEGVWIFYELPNYRGRQYLLDKKEYRKPIDWGAASPAVQSFRRI [S34A]  -0.004 ± 0.045
26. IQIFEKGDFSGQMYETTEDCPSIMEQFHMREIHSCKVEEGVWIFYELPNYRGRQYLLDKKEYRKPIDWGAASPAVQSFRRI [L38E]  -0.004 ± 0.053
27. IQIFEKGDFSGQMYETTEDCPSIMEQFHMREIHSCKVLEGVWIFYELKNYRGRQYLLDKKEYRKPIDWGAASPAVQSFRRI [P48K]  0.006 ± 0.089
28. IQIFEKGDFSGQMYETTEDCPSIMEQFHMREIHSCKVTEGVWIFYELPNYRGRQYLLDKKEYRKPIDWGAASPAVQSFRRI [L38T]  0.012 ± 0.058
29. IQIFIKGDFSGQMYETTEDCPSIMEQFHMREIHSCKVLEGVWIFYELPNYRGRQYLLDKKEYRKPIDWGAASPAVQSFRRI [E5I]  0.014 ± 0.086
30. IQIFEKGDFSGQMYETTEDCPSIMEQFHMREIHSCKVLEGVWSFYELPNYRGRQYLLDKKEYRKPIDWGAASPAVQSFRRI [I43S]  0.015 ± 0.053
31. IQIFEKGDFSGQMYETTEDCPSIMEQFHMREIHSVKVLEGVWIFYELPNYRGRQYLLDKKEYRKPIDWGAASPAVQSFRRI [C35V]  0.021 ± 0.048
32. IQIFEKGDFSGQMYETTEDCPSIMEQFHMREIHSCKVLEGVWIFYELPNYRGRQYLLDKKEYRKTIDWGAASPAVQSFRRI [P65T]  0.059 ± 0.19
33. IQIFEKGDFSGQMYETTEDCPSIMEQFHMREIHSCKVLEGVWIFYELPNYRGRQYLLDKKEYRKAIDWGAASPAVQSFRRI [P65A]  0.094 ± 0.11
34. IQIFEKGDFSGQMYETTEDCPYIMEQFHMREIHSCKVLEGVWIFYELPNYRGRQYLLDKKEYRKPIDWGAASPAVQSFRRI [S22Y]  0.142 ± 0.3
